Data as given in IntAct's records for PubMed 26342861.

B1: Wnt inhibitory factor 1 (Homo sapiens), Q9Y5W5 (parent)
chain: MARRSAFPAAALWLWSILLCLLALRAEAGPPQEESLYLWIDAHQARVLIGFEEDILIVSEGKMAPFTHDFRKAQQRMPAIPVNIHSMNFTWQAAGQAEYFYEFLSLRSLDKGIMADPTVNVPLLGTVPHKASVVQVGFPCLGKQDGVAAFEVDVIVMNSEGNTILQTPQNAIFFKTCQQAECPGGCRNGGFCNERRICECPDGFHGPHCEKALCTPRCMNGGLCVTPGFCICPPGFYGVNCDKANCSTTCFNGGTCFYPGKCICPPGLEGEQCEISKCPQPCRNGGKCIGKSKCKCSKGYQGDLCSKPVCEPGCGAHGTCHEPNKCQCQEGWHGRHCNKRYEASLIHALRPAGAQLRQHTPSLKKAEERRDPPESNYIW
partner: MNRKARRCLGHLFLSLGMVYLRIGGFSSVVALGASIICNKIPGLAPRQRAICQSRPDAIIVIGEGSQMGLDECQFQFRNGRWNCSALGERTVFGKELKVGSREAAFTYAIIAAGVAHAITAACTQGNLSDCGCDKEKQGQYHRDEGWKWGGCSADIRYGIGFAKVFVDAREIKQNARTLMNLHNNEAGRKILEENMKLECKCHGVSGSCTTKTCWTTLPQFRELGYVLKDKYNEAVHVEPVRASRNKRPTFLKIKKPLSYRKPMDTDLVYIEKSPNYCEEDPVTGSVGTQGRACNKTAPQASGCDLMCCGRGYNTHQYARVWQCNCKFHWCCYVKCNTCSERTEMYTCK
B2: Wnt inhibitory factor 1 (Homo sapiens), Q9Y5W5 (parent)
chain: B1 chain
partner: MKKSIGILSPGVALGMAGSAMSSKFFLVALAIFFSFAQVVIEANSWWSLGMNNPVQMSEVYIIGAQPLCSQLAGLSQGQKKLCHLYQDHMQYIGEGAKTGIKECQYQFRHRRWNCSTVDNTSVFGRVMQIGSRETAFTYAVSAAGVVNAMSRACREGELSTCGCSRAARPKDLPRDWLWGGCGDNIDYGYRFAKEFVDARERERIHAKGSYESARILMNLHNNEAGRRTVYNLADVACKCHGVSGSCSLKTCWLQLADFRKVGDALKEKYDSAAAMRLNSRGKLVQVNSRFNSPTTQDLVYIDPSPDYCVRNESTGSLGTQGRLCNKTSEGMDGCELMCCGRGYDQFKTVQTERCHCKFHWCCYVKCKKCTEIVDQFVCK

Variants of: B1
Settings: with wnt7a_human WNT7A

effect of a mutation on the interaction	Variant
decreasing interaction	MARRSAFPAAALWLWSILLCLLALRAEAGPPQEESLYLWIDAHQARVLIGFEEDILIVSEGKMAPFTHDFRKAQQRMPAIPVNIHSMNFTWQAAGQAEYFYEFLSLRSLDKGIMADPTVNVPRLGTVPHKASVVQVGFPCLGKQDGVAAFEVDVIVMNSEGNTILQTPQNAIFFKTCQQAECPGGCRNGGFCNERRICECPDGFHGPHCEKALCTPRCMNGGLCVTPGFCICPPGFYGVNCDKANCSTTCFNGGTCFYPGKCICPPGLEGEQCEISKCPQPCRNGGKCIGKSKCKCSKGYQGDLCSKPVCEPGCGAHGTCHEPNKCQCQEGWHGRHCNKRYEASLIHALRPAGAQLRQHTPSLKKAEERRDPPESNYIW [L123R]
decreasing interaction	MARRSAFPAAALWLWSILLCLLALRAEAGPPQEESLYLWIDAHQARVLIGFEEDILIVSEGKMAPFTHDFRKAQQRMPAIPVNIHSMNFTWQAAGQAEYFYEFLSLRSLDKGIMADPTVNVPLLGTVPHKASVVQVGFPCLGKQDGVAAFEVDVRVMNSEGNTILQTPQNAIFFKTCQQAECPGGCRNGGFCNERRICECPDGFHGPHCEKALCTPRCMNGGLCVTPGFCICPPGFYGVNCDKANCSTTCFNGGTCFYPGKCICPPGLEGEQCEISKCPQPCRNGGKCIGKSKCKCSKGYQGDLCSKPVCEPGCGAHGTCHEPNKCQCQEGWHGRHCNKRYEASLIHALRPAGAQLRQHTPSLKKAEERRDPPESNYIW [I155R]
decreasing interaction	MARRSAFPAAALWLWSILLCLLALRAEAGPPQEESLYLWIDAHQARVLIGFEEDILIVSEGKMAPFTHDFRKAQQRMPAIPVNIHSMNFTWQAAGQAEYFYEFLSLRSLDKGIMADPTVNVPLLGTVPHKASVVQVGFPCLGKQDGVAAFEVDVIVMNSEGNTILQTPQNARFFKTCQQAECPGGCRNGGFCNERRICECPDGFHGPHCEKALCTPRCMNGGLCVTPGFCICPPGFYGVNCDKANCSTTCFNGGTCFYPGKCICPPGLEGEQCEISKCPQPCRNGGKCIGKSKCKCSKGYQGDLCSKPVCEPGCGAHGTCHEPNKCQCQEGWHGRHCNKRYEASLIHALRPAGAQLRQHTPSLKKAEERRDPPESNYIW [I172R]

Variants of: B1
Settings: with wnt7a_human WNT7A
Remark: another data set of the same source

effect of a mutation on the interaction	Variant
increasing interaction	MARRSAFPAAALWLWSILLCLLALRAEAGPPQEESLYLWIDAHQARVLIGFEEDILIVSEGKMAPFTHDFRKAQQRMPAIPVNIHSMNFTWQAAGQAEYFYEFLSLRSLDKGIMADPTVNVPLLGTVPHKASVVQVGFPCLGKQDGVAAFEVDVRVMNSEGNTILQTPQNAIFFKTCQQAECPGGCRNGGFCNERRICECPDGFHGPHCEKALCTPRCMNGGLCVTPGFCICPPGFYGVNCDKANCSTTCFNGGTCFYPGKCICPPGLEGEQCEISKCPQPCRNGGKCIGKSKCKCSKGYQGDLCSKPVCEPGCGAHGTCHEPNKCQCQEGWHGRHCNKRYEASLIHALRPAGAQLRQHTPSLKKAEERRDPPESNYIW [I155R]

Variants of: B2
Settings: with wnt5a_human WNT5A

effect of a mutation on the interaction	Variant
disrupting interaction	MARRSAFPAAALWLWSILLCLLALRAEAGPPQEESLYLWIDAHQARVLIGFEEDILIVSEGKMAPFTHDFRKAQQRMPAIPVNIHSMNFTWQAAGQAEYFYEFLSLRSLDKGIMADPTVNVPLLGTVPHKASVVQVGFPCLGKQDGVAAFEVDVRVMNSEGNTILQTPQNAIFFKTCQQAECPGGCRNGGFCNERRICECPDGFHGPHCEKALCTPRCMNGGLCVTPGFCICPPGFYGVNCDKANCSTTCFNGGTCFYPGKCICPPGLEGEQCEISKCPQPCRNGGKCIGKSKCKCSKGYQGDLCSKPVCEPGCGAHGTCHEPNKCQCQEGWHGRHCNKRYEASLIHALRPAGAQLRQHTPSLKKAEERRDPPESNYIW [I155R]

Variants of: B2
Settings: with wnt5a_human WNT5A
Remark: another data set of the same source

effect of a mutation on the interaction	Variant
decreasing interaction	MARRSAFPAAALWLWSILLCLLALRAEAGPPQEESLYLWIDAHQARVLIGFEEDILIVSEGKMAPFTHDFRKAQQRMPAIPVNIHSMNFTWQAAGQAEYFYEFLSLRSLDKGIMADPTVNVPLLGTVPHKASVVQVGFPCLGKQDGVAAFEVDVRVMNSEGNTILQTPQNAIFFKTCQQAECPGGCRNGGFCNERRICECPDGFHGPHCEKALCTPRCMNGGLCVTPGFCICPPGFYGVNCDKANCSTTCFNGGTCFYPGKCICPPGLEGEQCEISKCPQPCRNGGKCIGKSKCKCSKGYQGDLCSKPVCEPGCGAHGTCHEPNKCQCQEGWHGRHCNKRYEASLIHALRPAGAQLRQHTPSLKKAEERRDPPESNYIW [I155R]
